Assay results published in article PMC11463350.

Biological target: T1, zPol θ (zebrafish DNA polymerase theta, polymerase domain) (Danio rerio (zebrafish), UniProt F1Q4P4 1798-2576)
T1 sequence: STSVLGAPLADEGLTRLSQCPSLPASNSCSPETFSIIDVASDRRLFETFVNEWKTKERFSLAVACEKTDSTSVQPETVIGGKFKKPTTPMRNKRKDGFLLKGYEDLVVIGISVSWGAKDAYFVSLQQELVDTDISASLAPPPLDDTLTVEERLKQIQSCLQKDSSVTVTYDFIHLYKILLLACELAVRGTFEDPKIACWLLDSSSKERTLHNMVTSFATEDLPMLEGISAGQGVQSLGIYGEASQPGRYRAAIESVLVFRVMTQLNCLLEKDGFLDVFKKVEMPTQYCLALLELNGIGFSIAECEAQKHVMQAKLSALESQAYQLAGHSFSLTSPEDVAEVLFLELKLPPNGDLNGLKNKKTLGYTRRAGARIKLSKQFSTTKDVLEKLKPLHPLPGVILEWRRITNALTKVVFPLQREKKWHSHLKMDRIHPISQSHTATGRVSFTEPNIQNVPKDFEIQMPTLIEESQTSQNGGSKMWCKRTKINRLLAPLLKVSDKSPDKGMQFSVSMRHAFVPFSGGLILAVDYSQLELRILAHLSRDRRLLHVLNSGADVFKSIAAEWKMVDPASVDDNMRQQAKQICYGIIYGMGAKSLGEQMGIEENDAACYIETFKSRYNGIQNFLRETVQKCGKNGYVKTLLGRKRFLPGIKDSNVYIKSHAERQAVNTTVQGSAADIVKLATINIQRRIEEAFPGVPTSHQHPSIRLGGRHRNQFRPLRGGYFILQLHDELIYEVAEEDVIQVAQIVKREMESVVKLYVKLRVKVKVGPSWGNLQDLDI
Assay: EMSA

B1: 25/40 undamaged DNA substrate (dsDNA)
DNA 1: TTTGCCTTGACCATGTAACAGAGAG
DNA 2: TCTCTTCTCTCACTCACGCTCTCTGTTACATGGTCAAGGC
Kd: ~19.8 nM
